Data published in patent US20230057904A1 (Chugai, published 2023).

What was measured:
human CLDN4 [1] = target: T1, human CLDN4 (human, UniProt O14493 1-209); assay: flow cytometry on hCLDN4/BaF (Ba/F3 transfectant), Alexa Fluor 488 anti-human IgG; histogram against KLH/TR01
T1 construct: also called hCLDN4; hCLDN4/BaF
T1 sequence: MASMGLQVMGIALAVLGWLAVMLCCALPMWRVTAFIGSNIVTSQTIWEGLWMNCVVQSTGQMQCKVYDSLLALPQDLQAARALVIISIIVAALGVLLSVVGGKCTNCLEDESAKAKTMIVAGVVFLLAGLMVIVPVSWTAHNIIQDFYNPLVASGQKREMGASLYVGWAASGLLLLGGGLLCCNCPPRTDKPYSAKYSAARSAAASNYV

human CLDN9 [2] = target: T2, human CLDN9 (human, UniProt O95484 1-217); assay: flow cytometry on hCLDN9/BaF (Ba/F3 transfectant), Alexa Fluor 488 anti-human IgG; histogram against KLH/TR01
T2 construct: also called hCLDN9; hCLDN9/BaF
T2 sequence: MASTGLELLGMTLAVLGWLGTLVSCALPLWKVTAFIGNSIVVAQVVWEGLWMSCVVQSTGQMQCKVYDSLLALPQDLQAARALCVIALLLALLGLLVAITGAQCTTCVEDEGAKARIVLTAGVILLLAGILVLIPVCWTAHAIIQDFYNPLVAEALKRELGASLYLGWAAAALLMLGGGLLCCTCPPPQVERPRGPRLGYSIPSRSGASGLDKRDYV

human CLDN3 [3] = target: T3, human CLDN3 (human, UniProt O15551 1-220); assay: flow cytometry on hCLDN3/BaF (Ba/F3 transfectant), Alexa Fluor 488 anti-human IgG; histogram against KLH/TR01
T3 construct: also called hCLDN3; hCLDN3/BaF
T3 sequence: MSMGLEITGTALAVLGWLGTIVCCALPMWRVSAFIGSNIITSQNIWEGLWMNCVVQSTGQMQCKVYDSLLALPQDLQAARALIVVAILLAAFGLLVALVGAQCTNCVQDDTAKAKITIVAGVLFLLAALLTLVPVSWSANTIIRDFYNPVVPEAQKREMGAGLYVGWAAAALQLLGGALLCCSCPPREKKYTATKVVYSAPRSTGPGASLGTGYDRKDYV
Method: (§1) Amino acid sequence are highly conserved among CLDN3, CLDN4, CLDN6 and CLDN9. Thus we examined CLDN6 binding specificity by FACS analysis. hCLDN6/BaF, hCLDN3/BaF, hCLDN4/BaF, and hCLDN9/BaF were incubated with CS2201, CS2961, AH05/TR01 and 6PHU3/TR01 at 15 micro g/ml. KLH/TR01 generated in Example 2-3 was used as a staining control. Binding of each antibody was detected with Alexa Fluor 488-conjugated anti human IgG (Invitrogen). Dead cells were separated by eFlour 780 (Invitrogen) staining.

mouse CLDN9 = target: T4, mouse CLDN9 (mouse, UniProt Q9Z0S7 1-217); assay: flow cytometry, FreeStyle 293-F transfectants expressing mouse CLDN9, anti-human IgG Alexa Fluor 647; MFI
T4 construct: also called mCLDN9; mCLDN9/FS293
T4 sequence: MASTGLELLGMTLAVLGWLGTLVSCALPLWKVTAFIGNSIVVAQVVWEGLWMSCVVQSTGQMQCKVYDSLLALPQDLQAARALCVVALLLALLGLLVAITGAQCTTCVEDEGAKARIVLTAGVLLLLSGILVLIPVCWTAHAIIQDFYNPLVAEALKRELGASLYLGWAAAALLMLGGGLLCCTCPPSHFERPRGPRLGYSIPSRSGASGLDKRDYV
Method: (§2) Antibodies were mixed with FreeStyle™ 293-F cells transiently expressed human and mouse CLDN3, 4, 6, and 9 at final concentration of 10 micro g/mL. After 1 hour of incubation, cells were washed by 0.1% BSA containing D-PBS(−), and incubated in 5 micro g/mL of either Goat anti-Human IgG (H+L) Cross-Adsorbed Secondary Antibody, Alexa Fluor 647 (Invitrogen, A21445) or Goat anti-Mouse IgG (H+L) Highly Cross-Adsorbed Secondary Antibody, Alexa Fluor 647 (Invitrogen, A21236), for 1 hour. Cells were then washed with 0.1% BSA containing D-PBS(−), resuspended in 5 micro L of 0.1% BSA containing D-PBS(−), and analyzed by flow cytometer (iQue Screener, intellicyte).

mouse CLDN3 = target: T5, mouse CLDN3 (mouse, UniProt Q9Z0G9 1-219); assay: flow cytometry, FreeStyle 293-F transfectants expressing mouse CLDN3, anti-human IgG Alexa Fluor 647; MFI
T5 construct: also called mCLDN3; mCLDN3/FS293
T5 sequence: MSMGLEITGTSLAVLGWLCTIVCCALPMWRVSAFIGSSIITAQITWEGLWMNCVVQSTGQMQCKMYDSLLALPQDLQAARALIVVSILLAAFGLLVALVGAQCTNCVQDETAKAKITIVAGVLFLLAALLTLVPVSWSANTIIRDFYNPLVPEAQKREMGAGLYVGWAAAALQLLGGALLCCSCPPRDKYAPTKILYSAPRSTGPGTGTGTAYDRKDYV
Method: as §2

human CLDN3 [4] = target: T3, human CLDN3; assay: flow cytometry on hCLDN3/BaF (Ba/F3 transfectant), Alexa Fluor 488 anti-human IgG
Method: as §1

mouse CLDN6 = target: T6, mouse CLDN6 (mouse, UniProt Q9Z262 1-219); assay: flow cytometry, FreeStyle 293-F transfectants expressing mouse CLDN6, anti-human IgG Alexa Fluor 647; MFI
T6 construct: also called mCLDN6; mCLDN6/FS293
T6 chain: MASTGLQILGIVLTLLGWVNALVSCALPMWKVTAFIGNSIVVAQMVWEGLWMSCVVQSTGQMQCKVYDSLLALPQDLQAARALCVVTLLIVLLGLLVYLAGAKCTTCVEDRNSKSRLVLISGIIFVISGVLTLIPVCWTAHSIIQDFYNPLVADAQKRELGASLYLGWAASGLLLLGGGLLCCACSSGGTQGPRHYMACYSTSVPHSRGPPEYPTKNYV
Method: as §2

human CLDN6 (Claudin-6) = target: T7, human CLDN6 (Claudin-6) (human, UniProt P56747 1-220); assay: flow cytometry, FreeStyle 293-F transfectants expressing human CLDN6, anti-human IgG Alexa Fluor 647; MFI
T7 construct: also called hCLDN6; human Claudin 6
T7 chain: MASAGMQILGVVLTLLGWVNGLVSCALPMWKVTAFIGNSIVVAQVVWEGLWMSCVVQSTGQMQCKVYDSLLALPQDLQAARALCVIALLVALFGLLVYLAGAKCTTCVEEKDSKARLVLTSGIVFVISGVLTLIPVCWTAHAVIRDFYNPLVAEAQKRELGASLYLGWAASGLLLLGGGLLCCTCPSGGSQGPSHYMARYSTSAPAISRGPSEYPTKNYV

human CLDN9 [5] = target: T2, human CLDN9; assay: flow cytometry, FreeStyle 293-F transfectants expressing human CLDN9, anti-human IgG Alexa Fluor 647; MFI
Method: as §2

human CLDN4 [6] = target: T1, human CLDN4; assay: flow cytometry on hCLDN4/BaF (Ba/F3 transfectant), Alexa Fluor 488 anti-human IgG
Method: as §1

mouse CLDN4 = target: T8, mouse CLDN4 (mouse, UniProt O35054 1-210); assay: flow cytometry, FreeStyle 293-F transfectants expressing mouse CLDN4, anti-human IgG Alexa Fluor 647; MFI
T8 construct: also called mCLDN4; mCLDN4/FS293
T8 sequence: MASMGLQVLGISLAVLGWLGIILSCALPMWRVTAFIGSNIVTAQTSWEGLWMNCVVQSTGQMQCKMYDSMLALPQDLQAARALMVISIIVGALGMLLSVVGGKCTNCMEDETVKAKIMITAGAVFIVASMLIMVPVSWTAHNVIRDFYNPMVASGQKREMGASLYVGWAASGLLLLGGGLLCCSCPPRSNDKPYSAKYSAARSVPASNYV
Method: as §2

Row | Binder | binding result (human CLDN4 [1]) | binding result (human CLDN9 [2]) | binding result (human CLDN3 [3]) | binding result (mouse CLDN9) | binding result (mouse CLDN3) | binding result (human CLDN3 [4]) | binding result (mouse CLDN6) | binding result (human CLDN6 (Claudin-6)) | binding result (human CLDN9 [5]) | binding result (human CLDN4 [6]) | binding result (mouse CLDN4)
1 | CS2961 (bispecific antibody, human IgG1, kappa, L234A L235A, N297A, also called 65HQ39E-SG1212/54L0532Q38K-SK1021//TR01 arm with SG1213/SK1017) heavy 1: QVQLVESGGGVVQPGGSLRLSCAASGFTFSSYTMSWVREAPGQGLEWMGTISSGGGRTYYPDSVKGRFTISRDNSKNTLYLQMNSLRDEDTAVYYCARGDYRYDGFAYWGEGTLVTVSSASTKGPSVFPLAPSSKSTSGGTAALGCLVEDYFPEPVTVSWNSGALTSGVHTFPAVLESSGLYSLSSVVTVPSSSLGTQTYICNVNHKPSNTKVDERVEPKSCDKTHTCPPCPAPEAAGGPKVFLFPPKPKDTLMISRTPEVTCVVVDVSHEDPEVKFNWYVDGVEVHNAKTKPREEQYASTYRVVSVLTVLHQDWLNGKEYKCKVSNKGLPSSIEKTISKAKGQPREPQVYTLPPSREEMTKNQVSLTCLVKGFYPSDIAVEWESNGQPENNYKTTPPVLDSDGSFFLYSKLTVDKSRWQQGNVFSCSVMHEALHNHYTQESLSLSP light 1: DIQMTQSPSSLSASVGDRVTITCRASYNIDSYLAWYQKKPGKAPELLIYYSTLLVDGVPDRFSGSRSGTDFTLTISSLQPEDFATYYCQHYYSIPYTFGQGTKVEIERTVAAPSVFIFPPSDKQLKSGTAKVVCLLNNFYPREAKVQWKVDNALQSGNSKESVTEQDSKDSTYSLSSTLTLSKADYEKHKVYACEVTHQGLSSPVTKSFNRGEC heavy 2: QVQLVESGGGVVQPGGSLRLSCAASGFTFSNAWMHWVRKAPGKGLEWVAQIKDKSQNYATYVAESVKGRFTISRADSKNSIYLQMNSLKTEDTAVYYCRYVHYAAGYGVDIWGQGTTVTVSSASTKGPSVFPLAPSSKSTSGGTAALGCLVKDYFPEPVTVSWNSGALTSGVHTFPAVLKSSGLYSLSSVVTVPSSSLGTQTYICNVNHKPSNTKVDKRVEPKSCDKTHTCPPCPAPEAAGGPKVFLFPPKPKDTLMISRTPEVTCVVVDVSHEDPEVKFNWYVDGVEVHNAKTKPREEQYASTYRVVSVLTVLHQDWLNGKEYKCKVSNKGLPSSIEKTISKAKGQPREPQVYTLPPSRKEMTKNQVSLTCLVKGFYPSDIAVEWESNGQPENNYKTTPPVLDSDGSFFLYSKLTVDKSRWQQGNVFSCSVMHEALHNHYTQKSLSLSP light 2: DIVMTQSPLSLPVTPGEPASISCRSSQPLVHSNRNTYLHWYQEKPGQAPRLLIYKVSNRFSGVPDRFSGSGSGTDFTLKISRVEAEDVGVYYCGQGTQVPYTFGQGTKLEIKRTVAAPSVFIFPPSDEQLKSGTAEVVCLLNNFYPREAKVQWKVDNALQSGNSEESVTEQDSKDSTYSLSSTLELSKADYEKHKVYACEVTHQGLSSPVTKSFNRGEC | no binding (tested: 15 micro g/ml) | no binding (tested: 15 micro g/ml) | no binding (tested: 15 micro g/ml) |  |  |  |  |  |  |  | 
2 | KLH/TR01 (bispecific antibody, V domains shown, made by Fab arm exchange; also called bispecific antibody of anti-keyhole limpet hemocyanin (KLH) antibody paired with the human CD3 antibody TR01; negative control) VH 1: QVQLQQSGPQLVRPGASVKISCKASGYSFTSYWMHWVNQRPGQGLEWIGMIDPSYSETRLNQKFKDKATLTVDKSSSTAYMQLSSPTSEDSAVYYCALYGNYFDYWGQGTTLTVSS VL 1: DIQMTQSSSSFSVSLGDRVTITCKASEDIYNRLAWYQQKPGNAPRLLISGATSLETGVPSRFSGSGSGKDYTLSITSLQTEDVATYYCQQYWSTPYTFGGGTKLEVK VH 2: QVQLVESGGGVVQPGGSLRLSCAASGFTFSNAWMHWVRQAPGKGLEWVAQIKDKSQNYATYVAESVKGRFTISRADSKNSIYLQMNSLKTEDTAVYYCRYVHYAAGYGVDIWGQGTTVTVSS VL 2: DIVMTQSPLSLPVTPGEPASISCRSSQPLVHSNRNTYLHWYQQKPGQAPRLLIYKVSNRFSGVPDRFSGSGSGTDFTLKISRVEAEDVGVYYCGQGTQVPYTFGQGTKLEIK |  |  |  | no binding (tested: 10 micro g/mL) | no binding (tested: 10 micro g/mL) | no binding (tested: 15 micro g/ml) | no binding (tested: 10 micro g/mL) | no binding (tested: 10 micro g/mL) | no binding (tested: 10 micro g/mL) | no binding (tested: 15 micro g/ml) | no binding (tested: 10 micro g/mL)
